In US20110039770A1 (PHARMAGAP, published 2011):

B1: PRE 12 (peptide)
peptide: Ac-KDAQNLI-NH2
notes: Ac-KDAQNLI-NH2; also called peptide PRE 12
B2: PRE 13 (peptide)
peptide: Ac-RDAQNLI-NH2
notes: Ac-RDAQNLI-NH2; also called peptide PRE 13

Key:
[1] = molecular target: T1, PKC-βII (purified isoform) (Homo sapiens (Human), UniProt P05771 2-621); assay: competitive ELISA, coated purified PKC-βII, vs anti-PKC βII (SC-210); PRE 50 µM
T1 construct: also called PKC-beta II; PKC beta 2
Method: (§1) Greiner 96 well ELISA plates were coated with the appropriate PKC isoform diluted in PBSN (PBS with Calcium/Magnesium+0.05% Sodium azide w/w). 50 μL/well at 250 ng/mL was used. Control wells contained PBSN only. Plates were incubated overnight at 4° C.
(§2) The plates were washed 3 times with 200 μL of dH₂O per well, then 100 μL of blocking solution was added per well and the plate incubated for 1 h at 37° C. The washing steps with dH₂O were repeated and 50 μL of the appropriate PRE solution (PRE stock solution [20 mM in DMSO] diluted in PBSN) was added and the plate incubated for 1 h at room temperature.
(§3) 50 μL of 1:1000 dilution of Alkaline Phosphatase (AP) conjugated antibody (anti-rabbit for all except zeta, which was anti-goat) was then added and the plate incubated for 1 h at room temperature. Washing with dH₂O was then repeated. Finally, 100 μL of pNPP solution in pNPP buffer (2 mM MgCl₂, 100 mM Sodium bicarbonate in water, pH 9.8) was added to all wells and incubated for 8 minutes for α, βI, βII ε, and ζ, or for 15-20 mins for δ (until sufficient coloration is observed). The reaction was stopped by addition of Stop solution (2N NaOH) and the absorbance at 405 nm was read on a Galaxy Plate reader.

[2] = molecular target: T2, PKC-βI (purified isoform) (Homo sapiens (Human), UniProt P05771 2-671); assay: competitive ELISA, coated purified PKC-βI, vs anti-PKC βI (SC-209); PRE 100 µM
T2 construct: also called PKC-beta I; PKC beta 1
Method: as §1, §2, §3

PKC-δ (purified isoform) [3] = molecular target: T3, PKC-δ (purified isoform); assay: competitive ELISA, coated purified PKC-δ, vs anti-PKC δ (SC-213); PRE 200 µM
T3 construct: also called PKC-delta
Method: as §1, §2, §3

PKC-α (purified isoform) [4] = molecular target: T4, PKC-α (purified isoform) (Homo sapiens (Human), UniProt P17252 2-672); assay: competitive ELISA, coated purified PKC-α, vs anti-PKC α (SC-208); PRE 50 µM
T4 construct: also called purified PKC-alpha; commercially purified PKC-alpha
Method: as §1, §2, §3

[5] = molecular target: T2, PKC-βI (purified isoform); assay: competitive ELISA, coated purified PKC-βI, vs anti-PKC βI (SC-209); PRE 200 µM
Method: as §1, §2, §3

[6] = molecular target: T2, PKC-βI (purified isoform); assay: competitive ELISA, coated purified PKC-βI, vs anti-PKC βI (SC-209); PRE 50 µM
Method: as §1, §2, §3

[7] = molecular target: T1, PKC-βII (purified isoform); assay: competitive ELISA, coated purified PKC-βII, vs anti-PKC βII (SC-210); PRE 200 µM
Method: as §1, §2, §3

PKC-δ (purified isoform) [8] = molecular target: T3, PKC-δ (purified isoform); assay: competitive ELISA, coated purified PKC-δ, vs anti-PKC δ (SC-213); PRE 50 µM
Method: as §1, §2, §3

[9] = molecular target: T1, PKC-βII (purified isoform); assay: competitive ELISA, coated purified PKC-βII, vs anti-PKC βII (SC-210); PRE 100 µM
Method: as §1, §2, §3

PKC-δ (purified isoform) [10] = molecular target: T3, PKC-δ (purified isoform); assay: competitive ELISA, coated purified PKC-δ, vs anti-PKC δ (SC-213); PRE 100 µM
Method: as §1, §2, §3

PKC-α (purified isoform) [11] = molecular target: T4, PKC-α (purified isoform); assay: competitive ELISA, coated purified PKC-α, vs anti-PKC α (SC-208); PRE 100 µM
Method: as §1, §2, §3

PKC-α (purified isoform) [12] = molecular target: T4, PKC-α (purified isoform); assay: competitive ELISA, coated purified PKC-α, vs anti-PKC α (SC-208); PRE 200 µM
Method: as §1, §2, §3

T3 sequence (Q05655 whole entry, stated change not applied, canonical isoform): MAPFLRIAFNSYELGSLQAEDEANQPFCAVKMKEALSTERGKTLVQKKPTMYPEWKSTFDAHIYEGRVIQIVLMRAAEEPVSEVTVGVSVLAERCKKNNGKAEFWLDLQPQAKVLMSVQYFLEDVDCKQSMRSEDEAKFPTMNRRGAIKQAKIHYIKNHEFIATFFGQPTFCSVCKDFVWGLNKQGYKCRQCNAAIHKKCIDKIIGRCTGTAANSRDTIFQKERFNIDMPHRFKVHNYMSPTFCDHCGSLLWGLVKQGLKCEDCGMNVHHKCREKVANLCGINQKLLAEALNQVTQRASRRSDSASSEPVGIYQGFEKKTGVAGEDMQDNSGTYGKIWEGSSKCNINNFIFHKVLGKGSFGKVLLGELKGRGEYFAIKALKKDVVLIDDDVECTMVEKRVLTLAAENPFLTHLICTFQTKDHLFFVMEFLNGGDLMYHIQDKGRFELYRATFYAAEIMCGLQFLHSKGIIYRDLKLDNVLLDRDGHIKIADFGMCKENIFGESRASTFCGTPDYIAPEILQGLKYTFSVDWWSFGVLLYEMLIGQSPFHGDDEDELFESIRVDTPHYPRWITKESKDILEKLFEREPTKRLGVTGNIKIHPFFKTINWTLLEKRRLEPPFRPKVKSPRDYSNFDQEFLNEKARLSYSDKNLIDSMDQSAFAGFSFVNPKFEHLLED
T1 sequence (P05771 other isoform, or with tags, fused parts or gaps limits assumed): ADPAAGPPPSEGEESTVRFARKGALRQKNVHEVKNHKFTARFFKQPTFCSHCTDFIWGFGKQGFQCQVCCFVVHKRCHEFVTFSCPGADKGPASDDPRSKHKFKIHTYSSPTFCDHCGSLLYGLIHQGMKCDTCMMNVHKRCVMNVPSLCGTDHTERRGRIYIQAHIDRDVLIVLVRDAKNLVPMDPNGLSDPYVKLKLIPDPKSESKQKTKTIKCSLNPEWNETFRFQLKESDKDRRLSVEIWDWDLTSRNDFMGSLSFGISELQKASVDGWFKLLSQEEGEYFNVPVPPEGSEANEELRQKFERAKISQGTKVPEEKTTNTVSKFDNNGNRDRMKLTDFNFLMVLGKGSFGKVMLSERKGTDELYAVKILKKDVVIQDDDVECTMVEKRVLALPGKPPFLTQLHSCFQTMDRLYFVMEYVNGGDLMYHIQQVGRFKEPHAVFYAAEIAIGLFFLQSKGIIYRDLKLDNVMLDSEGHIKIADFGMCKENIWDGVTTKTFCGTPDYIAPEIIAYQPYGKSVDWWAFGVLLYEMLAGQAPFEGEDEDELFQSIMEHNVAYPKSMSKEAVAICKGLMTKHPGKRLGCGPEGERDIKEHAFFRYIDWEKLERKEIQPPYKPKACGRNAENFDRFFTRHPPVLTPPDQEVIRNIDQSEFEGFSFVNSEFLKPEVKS
T2 sequence (P05771 2-671 limits assumed): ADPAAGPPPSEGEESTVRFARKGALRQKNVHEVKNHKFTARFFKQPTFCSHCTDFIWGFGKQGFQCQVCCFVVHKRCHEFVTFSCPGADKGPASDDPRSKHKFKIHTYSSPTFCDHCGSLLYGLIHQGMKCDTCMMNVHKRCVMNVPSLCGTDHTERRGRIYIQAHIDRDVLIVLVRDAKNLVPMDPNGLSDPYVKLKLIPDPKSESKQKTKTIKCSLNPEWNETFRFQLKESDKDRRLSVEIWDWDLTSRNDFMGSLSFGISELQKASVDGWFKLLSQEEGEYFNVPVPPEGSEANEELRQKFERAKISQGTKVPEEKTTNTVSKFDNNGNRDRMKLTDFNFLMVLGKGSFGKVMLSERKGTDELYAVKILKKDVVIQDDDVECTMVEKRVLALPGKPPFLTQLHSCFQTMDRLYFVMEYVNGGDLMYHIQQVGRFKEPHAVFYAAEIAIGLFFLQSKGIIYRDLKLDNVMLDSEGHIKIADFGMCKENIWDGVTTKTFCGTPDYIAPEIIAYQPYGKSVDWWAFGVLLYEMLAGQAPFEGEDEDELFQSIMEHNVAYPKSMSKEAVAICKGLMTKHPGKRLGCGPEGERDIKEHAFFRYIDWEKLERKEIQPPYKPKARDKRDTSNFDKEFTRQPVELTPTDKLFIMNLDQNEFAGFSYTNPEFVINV

Binder	relative binding capacity (100-%n, DMSO subtracted) [1]	relative binding capacity (100-%n, DMSO subtracted) [2]	relative binding capacity (100-%n, DMSO subtracted) (PKC-δ (purified isoform) [3])	relative binding capacity (100-%n, DMSO subtracted) (PKC-α (purified isoform) [4])	relative binding capacity (100-%n, DMSO subtracted) [5]	relative binding capacity (100-%n, DMSO subtracted) [6]	relative binding capacity (100-%n, DMSO subtracted) [7]	relative binding capacity (100-%n, DMSO subtracted) (PKC-δ (purified isoform) [8])	relative binding capacity (100-%n, DMSO subtracted) [9]	relative binding capacity (100-%n, DMSO subtracted) (PKC-δ (purified isoform) [10])	relative binding capacity (100-%n, DMSO subtracted) (PKC-α (purified isoform) [11])	relative binding capacity (100-%n, DMSO subtracted) (PKC-α (purified isoform) [12])
B1	4.55%	0%	23.5%	3.29%	0%	0.79%	0%	2.26%	0%	1.02%	5.16%	0%
B2	0%	0%	17.9%	0%	0%	0%	0%	0%	1.63%	0.79%	0%	0%
Ac-AKGIQEVKGGKDAQNLIGISI-NH2 (also called peptide PRE 5) [PRE 5]	0%	0%	4.31%	0%	0%	0%	0%	0.2%	0%	0%	0%	0%
